Measured values published in patent US20240279357A1 (THERINI BIO, published 2024).

Molecular target: T1, human Fibrin (human fibrinogen clotted on the plate with thrombin and CaCl2) (human, UniProt P02671 36-629; P02675 45-491; P02679 27-437)
T1 construct: Made in the ELISA wells from the human fibrinogen by thrombin and CaCl2, 1 hour at 37 C, then dried
T1 sequence (looked up) 1: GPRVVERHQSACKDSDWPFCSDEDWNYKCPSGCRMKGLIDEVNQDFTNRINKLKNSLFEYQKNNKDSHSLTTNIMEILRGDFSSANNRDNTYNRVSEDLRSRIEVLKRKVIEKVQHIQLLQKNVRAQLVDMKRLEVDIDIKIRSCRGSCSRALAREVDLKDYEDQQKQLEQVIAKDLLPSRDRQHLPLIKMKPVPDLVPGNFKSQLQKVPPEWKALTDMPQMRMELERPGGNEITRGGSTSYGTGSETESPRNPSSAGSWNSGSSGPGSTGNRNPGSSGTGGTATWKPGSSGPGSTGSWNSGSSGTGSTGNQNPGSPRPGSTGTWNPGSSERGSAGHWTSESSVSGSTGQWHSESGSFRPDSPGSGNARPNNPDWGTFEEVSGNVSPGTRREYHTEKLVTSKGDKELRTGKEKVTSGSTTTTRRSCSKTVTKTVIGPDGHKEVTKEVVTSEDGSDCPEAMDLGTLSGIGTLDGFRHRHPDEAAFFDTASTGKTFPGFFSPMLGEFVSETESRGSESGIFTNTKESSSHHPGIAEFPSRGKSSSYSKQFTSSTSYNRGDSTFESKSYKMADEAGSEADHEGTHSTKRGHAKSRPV
T1 sequence (looked up) 2: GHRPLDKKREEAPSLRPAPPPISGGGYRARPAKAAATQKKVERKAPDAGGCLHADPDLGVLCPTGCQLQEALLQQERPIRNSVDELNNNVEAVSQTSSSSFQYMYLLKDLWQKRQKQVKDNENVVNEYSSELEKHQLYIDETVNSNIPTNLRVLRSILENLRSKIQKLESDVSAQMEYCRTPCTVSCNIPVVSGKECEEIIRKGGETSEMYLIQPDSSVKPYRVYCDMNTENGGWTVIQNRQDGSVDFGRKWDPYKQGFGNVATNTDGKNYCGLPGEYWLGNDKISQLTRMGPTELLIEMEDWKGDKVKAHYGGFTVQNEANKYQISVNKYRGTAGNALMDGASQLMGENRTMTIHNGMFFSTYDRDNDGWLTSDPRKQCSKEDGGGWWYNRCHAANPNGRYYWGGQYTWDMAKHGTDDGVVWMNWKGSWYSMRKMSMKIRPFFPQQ
T1 sequence (looked up) 3: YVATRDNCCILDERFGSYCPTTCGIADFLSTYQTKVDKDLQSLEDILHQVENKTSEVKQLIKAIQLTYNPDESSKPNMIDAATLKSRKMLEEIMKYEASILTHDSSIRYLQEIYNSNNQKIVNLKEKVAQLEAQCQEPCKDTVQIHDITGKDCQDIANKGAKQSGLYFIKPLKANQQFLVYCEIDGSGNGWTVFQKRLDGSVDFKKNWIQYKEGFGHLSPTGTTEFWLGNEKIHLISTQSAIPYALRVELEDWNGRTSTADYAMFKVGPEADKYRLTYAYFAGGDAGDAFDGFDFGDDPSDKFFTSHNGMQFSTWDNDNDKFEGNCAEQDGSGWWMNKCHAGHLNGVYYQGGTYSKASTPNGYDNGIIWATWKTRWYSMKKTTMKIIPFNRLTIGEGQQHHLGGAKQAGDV
Experiment: ELISA on plate-coated human fibrin (fibrinogen clotted in the well with thrombin/CaCl2), antibody titrated, A450
Experimental: The humanized antibodies affinity for fibrinogen, fibrin and P2 peptide were assessed by Enzyme-linked immunosorbent assays (ELISA)s (FIGS. 7-16). ELISAs for fibrinogen binding were performed using plasminogen-depleted human Fibrinogen (EMD/Calbiochem). […] IgG1-depleted Fibrinogen (FGN) in 20 mM HEPES/Saline buffer was added to each well of half of a 96-well Nunc Maxisorp™ ELISA plate. The ELISAs for fibrin binding were prepared by adding 50 mL of 20 mM HEPES/Saline buffer containing 14 mM CaCl₂, and 2 units thrombin to each well of the second half of the Nunc Maxisorp™ ELISA plate. 50 mL of 20 mg fibrinogen in 20 mM HEPES/Saline buffer were then added to a total volume of 100 mL. Plates were placed in a 37° C. incubator for 1 hour to allow fibrinogen to clot into fibrin and subsequently placed overnight into a plate dryer at 37° C. overnight. The ELISAs for P2 peptide were prepared by addition of […] of 30 mM P2 peptide in 20 mM HEPES/Saline buffer to each well of a 96-well Nunc Maxisorp™ ELISA plate. Plates were transferred to the plate dryer and dried overnight at 37° C. All ELISAs were preformed using Nunc MaxiSorp 96-well ELISA plates. Blocking was performed using 100 mL 5% BSA in DPBS are incubated at RT for 1 hour. Plates were washed 5× in DPBS containing 0.05% Tween-20 (EL406 was used for the addition of wash buffer only). […]

EC50 (read off the curve): ~300 nM
B1: humanized VH4/Vκ1 antibody (antibody, IgG1, V domains shown)
VH: QVQLVQSGAEVKKPGSSVKVSCKASGYTFTSYWIHWVRQAPGQGLEWIGLIDPSDSYTNYNQKFRGRVTITVDTSTSTAYMELSSLRSEDTAVYYCASSDPTGCWGQGTTVTVSS
VL: DIVMTQAAFSNPITPGTPASISCRSSKSLLHSSGITYLSWYLQKPGQSPQLLIYQMSNLASGVPDRFSSSGSGTDFTLRISRVEAEDVGVYYCAQNLELPLTFGQGTKLEIK
notes: Expressed as IgG1; also called VH4/VK1; VH4Vk1
